Measurements: patent US20170081404A1

Experiments:
[1] = molecular target: Biotin-GCN4 peptide (yeast); experiment: SPR (Biacore 3000, 25 C): Biotin-GCN4 peptide captured on immobilised streptavidin (CM5 chip), Fab-scFv injected as analyte, 1:1 binding model
[2] = molecular target: Biotin-GCN4 peptide (yeast); experiment: SPR, Biacore 3000, 25 C; Biotin-GCN4 peptide captured on immobilised streptavidin (CM5), Fab-scFv injected in three-fold dilutions from 30 nM, 1:1 binding model

koff [1]: 0.00027 s⁻¹
kon [1]: 510000 M⁻¹ s⁻¹
Kd [2]: 516 pM
B1: Fab A-scFv '52SR4' (protein, part only; not given: Fab A heavy and light chains, not shown: another chain or arm of the molecule; a dimerising Fc or GST; small tags and cut ends)
scFv: DAVVTQESALTSSPGETVTLTCRSSTGAVTTSNYASWVQEKPDHLFTGLIGGTNNRAPGVPARFSGSLIGDKAALTITGAQTEDEAIYFCVLWYSDHWVFGCGTKLTVLGGGGGSGGGGSGGGGSGGGGSDVQLQQSGPGLVAPSQSLSITCTVSGFLLTDYGVNWVRQSPGKCLEWLGVIWGDGITDYNSALKSRLSVTKDNSKSQVFLKMNSLQSGDSARYYCVTGLFDYWGQGTTLTVSSAAAHHHHHHEQKLISEEDL
